Experimental findings from FireProtDB (doi:10.1110/ps.041111405) are described below.

For this data set the following is noted: Homo sapiens; pH 7; 37 °C; GdnHCl; Fluorescence; Sodium phosphate 10 mM; transition: 3; whole UniProt chain shown.

B1: Gamma-crystallin D wild type, P07320 (protein)
chain: MGKITLYEDRGFQGRHYECSSDHPNLQPYLSRCNSARVDSGCWMLYEQPNYSGLQYFLRRGDYADHQQWMGLSDSVRSCRLIPHSGSHRIRLYEREDYRGQMIEFTEDCSCLQDRFRFNEIHSLNVLEGSWVLYELSNYRGRQYLLMPGDYRRYQDWGATNARVGSLRRVIDFS
For the protein B1, the denaturant m value was 3.1 kcal/mol/M, the “denaturant midpoint (higher = more stable)” value was 2.8 M and the unfolding free energy was found to be 8.9 kcal/mol.
